Publication PMC8928221, “Structure and Function Insight of the α-Glucosidase QsGH13 From Qipengyuania seohaensis sp. SW-135” (Frontiers in Microbiology, 2022)

Legend:
[1] = target: T1, QsGH13 (Qipengyuania seohaensis, UniProt A0A8X6EH34); assay: residual activity, p-nitrophenol release, absorbance […] nm; type: biochemical; settings: product tolerance test, 2 M glucose, substrate pNPαGlu, 20 mM Gly-NaOH pH 10.0, 45 °C
T1 construct: N-terminal His6-SUMO tag cut off with Ulp1; expressed in E. coli BL21(DE3) from pSMT3; dimer; primers encode N-terminus MSGKLP and C-terminus ILETDT (translated from primers)

[2] = target: α-glucosidase QsGH13 from Qipengyuania seohaensis sp. SW-135 (Qipengyuania seohaensis sp. SW-135); assay: crystal structure; QsGH13 at 10 mg/ml, hanging drop vapour diffusion at 4°C, 0.1 M Tris-HCl pH 8.5, 0.2 M NaCl, 20% PEG 3,350; space group P212121, two monomers per asymmetric unit
[3] = substrate: O=[N+]([O-])c1ccc(O[C@H]2O[C@H](CO)[C@@H](O)[C@H](O)[C@H]2O)cc1; assay: purified protein; settings: pH 10.0 (20 mM Gly-NaOH), 45 °C, 0.025-2.0 mM substrate

With `OC[C@H]1OC(O)[C@H](O)[C@@H](O)[C@@H]1O` (stereo partly drawn) [glucose] the “% activity retained at 2 M” value [1] was 30%.

“α-glucosidase QsGH13 from Qipengyuania seohaensis sp. SW-135 (enzyme)” gave a stoichiometry N [2] of 2.

B1: QsGH13 (Qipengyuania seohaensis) (protein)
chain: MSGKLPWWKGAVIYQIYPRSFMDSNGDGIGDLPGIAQRLPHIAELGADAIWISPFFKSPMKDFGYDVSDYCDVDPIFGTLEDFDAVIARSHELGLKVLIDQVYSHTSDDHEWFAESRSNRDNPKAEWYVWADAKPDGSPPSNWQSVFGGPAWTWDARRGQYYLHNFLSSQPQLNLHNREAQQAVLDVMRFWLERGVDGFRIDALNFAMHDPQLRDNPPAPPTDKQRTRPFDFQLKTYNQSHADIPAFIERIRALTDEFDGIFTVAEVGGDDAVREMKAFTEGETHLNSAYGFNFLYAEALTPQLVCSALAEWPEEPDLGWPSWAFENHDAPRALSRWCTPEDRQAFARLKTLLLMSLRGNAILYYGEELGLTQVDIPFDQLHDPEAIANWPLTLSRDGARTPMPWDDSECAGFGSTAPWLPVGDDNRPRSVAAQLGDANSLLKFTRQAIALRKANPALHHGHVVECNHDGDLLELVREAGGQRLRCRFNLGSKPVECDDCEGRTLLAINGAEPTALPPFAAIILETDT
For B1, the Km [3] was 295.2 ± 32.2 µM.
